Data as given in patent publication US20210032299A1 (Eli Lilly, published 2021).
Starred links: 1 amine or outer side, 2 acyl side, 3 side chain; linkers in the order of their positions; H or OH if unused. Non-standard residues stand in square brackets, D forms with d. Groups on a side chain read outwards from the residue. No end group written: not given here. *: point of attachment. C20 diacid = O=C(O)CCCCCCCCCCCCCCCCCCC(=O)*; γGlu = O=C(O)[C@H](CCC(=O)[*:2])N[*:1]; 4Pal = N[C@@H](Cc1ccncc1)C(=O)O; αMeL = CC(C)C[C@](C)(N)C(=O)O; AEEA = NCCOCCOCC(=O)O; Aib = CC(C)(N)C(=O)O

T1: human glucose-dependent insulinotropic polypeptide (GIP) receptor (human, UniProt P48546 22-466)
T1 construct: whole, on cells; Assayed as crude membranes of stably transfected CHO cells; also called hGIPR; human GIP receptor
T1 sequence (looked up): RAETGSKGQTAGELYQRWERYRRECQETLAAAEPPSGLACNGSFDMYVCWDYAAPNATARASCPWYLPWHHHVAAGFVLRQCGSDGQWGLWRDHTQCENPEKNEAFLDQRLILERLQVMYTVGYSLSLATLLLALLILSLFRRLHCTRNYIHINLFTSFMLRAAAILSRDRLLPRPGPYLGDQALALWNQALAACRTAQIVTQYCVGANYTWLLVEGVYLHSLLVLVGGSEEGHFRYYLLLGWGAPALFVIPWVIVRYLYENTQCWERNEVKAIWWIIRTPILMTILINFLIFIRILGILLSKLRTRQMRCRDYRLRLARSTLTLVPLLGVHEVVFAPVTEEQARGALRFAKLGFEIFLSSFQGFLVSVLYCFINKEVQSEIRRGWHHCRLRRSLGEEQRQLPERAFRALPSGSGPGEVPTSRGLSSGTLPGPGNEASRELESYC

B1: Example 59 (peptide)
peptide: Y[Aib]EGTFISDYSI[αMeL]LDKK([AEEA-AEEA-γGlu-C20 diacid])HQ[Aib]EFVE[4Pal]LLAAGPSSGAPPPS-NH2
modifications: N-terminus assumed
SMILES: CC[C@H](C)[C@H](NC(=O)[C@H](Cc1ccccc1)NC(=O)[C@@H](NC(=O)CNC(=O)[C@H](CCC(=O)O)NC(=O)C(C)(C)NC(=O)[C@@H](N)Cc1ccc(O)cc1)[C@@H](C)O)C(=O)N[C@@H](CO)C(=O)N[C@@H](CC(=O)O)C(=O)N[C@@H](Cc1ccc(O)cc1)C(=O)N[C@@H](CO)C(=O)N[C@H](C(=O)N[C@@](C)(CC(C)C)C(=O)N[C@@H](CC(C)C)C(=O)N[C@@H](CC(=O)O)C(=O)N[C@@H](CCCCN)C(=O)N[C@@H](CCCCNC(=O)COCCOCCNC(=O)COCCOCCNC(=O)CC[C@H](NC(=O)CCCCCCCCCCCCCCCCCCC(=O)O)C(=O)O)C(=O)N[C@@H](Cc1c[nH]cn1)C(=O)N[C@@H](CCC(N)=O)C(=O)NC(C)(C)C(=O)N[C@@H](CCC(=O)O)C(=O)N[C@@H](Cc1ccccc1)C(=O)N[C@H](C(=O)N[C@@H](CCC(=O)O)C(=O)N[C@@H](Cc1ccncc1)C(=O)N[C@@H](CC(C)C)C(=O)N[C@@H](CC(C)C)C(=O)N[C@@H](C)C(=O)N[C@@H](C)C(=O)NCC(=O)N1CCC[C@H]1C(=O)N[C@@H](CO)C(=O)N[C@@H](CO)C(=O)NCC(=O)N[C@@H](C)C(=O)N1CCC[C@H]1C(=O)N1CCC[C@H]1C(=O)N1CCC[C@H]1C(=O)N[C@@H](CO)C(N)=O)C(C)C)[C@@H](C)CC
B2: Example 85 (peptide)
peptide: Y[Aib]EGTFISDYSI[αMeL]LDEK([AEEA-AEEA-γGlu-C20 diacid])HQ[Aib]DFVE[4Pal]LLAAGPSSGAPPPS-NH2
modifications: N-terminus assumed
SMILES: CC[C@H](C)[C@H](NC(=O)[C@H](Cc1ccccc1)NC(=O)[C@@H](NC(=O)CNC(=O)[C@H](CCC(=O)O)NC(=O)C(C)(C)NC(=O)[C@@H](N)Cc1ccc(O)cc1)[C@@H](C)O)C(=O)N[C@@H](CO)C(=O)N[C@@H](CC(=O)O)C(=O)N[C@@H](Cc1ccc(O)cc1)C(=O)N[C@@H](CO)C(=O)N[C@H](C(=O)N[C@@](C)(CC(C)C)C(=O)N[C@@H](CC(C)C)C(=O)N[C@@H](CC(=O)O)C(=O)N[C@@H](CCC(=O)O)C(=O)N[C@@H](CCCCNC(=O)COCCOCCNC(=O)COCCOCCNC(=O)CC[C@H](NC(=O)CCCCCCCCCCCCCCCCCCC(=O)O)C(=O)O)C(=O)N[C@@H](Cc1c[nH]cn1)C(=O)N[C@@H](CCC(N)=O)C(=O)NC(C)(C)C(=O)N[C@@H](CC(=O)O)C(=O)N[C@@H](Cc1ccccc1)C(=O)N[C@H](C(=O)N[C@@H](CCC(=O)O)C(=O)N[C@@H](Cc1ccncc1)C(=O)N[C@@H](CC(C)C)C(=O)N[C@@H](CC(C)C)C(=O)N[C@@H](C)C(=O)N[C@@H](C)C(=O)NCC(=O)N1CCC[C@H]1C(=O)N[C@@H](CO)C(=O)N[C@@H](CO)C(=O)NCC(=O)N[C@@H](C)C(=O)N1CCC[C@H]1C(=O)N1CCC[C@H]1C(=O)N1CCC[C@H]1C(=O)N[C@@H](CO)C(N)=O)C(C)C)[C@@H](C)CC
B3: Example 70 (peptide)
peptide: Y[Aib]EGTFISDYSI[αMeL]LDKK([AEEA-AEEA-γGlu-C20 diacid])HQ[Aib]DFVE[4Pal]LLATGPSSGAPPPS-NH2
modifications: N-terminus assumed
SMILES: CC[C@H](C)[C@H](NC(=O)[C@H](Cc1ccccc1)NC(=O)[C@@H](NC(=O)CNC(=O)[C@H](CCC(=O)O)NC(=O)C(C)(C)NC(=O)[C@@H](N)Cc1ccc(O)cc1)[C@@H](C)O)C(=O)N[C@@H](CO)C(=O)N[C@@H](CC(=O)O)C(=O)N[C@@H](Cc1ccc(O)cc1)C(=O)N[C@@H](CO)C(=O)N[C@H](C(=O)N[C@@](C)(CC(C)C)C(=O)N[C@@H](CC(C)C)C(=O)N[C@@H](CC(=O)O)C(=O)N[C@@H](CCCCN)C(=O)N[C@@H](CCCCNC(=O)COCCOCCNC(=O)COCCOCCNC(=O)CC[C@H](NC(=O)CCCCCCCCCCCCCCCCCCC(=O)O)C(=O)O)C(=O)N[C@@H](Cc1c[nH]cn1)C(=O)N[C@@H](CCC(N)=O)C(=O)NC(C)(C)C(=O)N[C@@H](CC(=O)O)C(=O)N[C@@H](Cc1ccccc1)C(=O)N[C@H](C(=O)N[C@@H](CCC(=O)O)C(=O)N[C@@H](Cc1ccncc1)C(=O)N[C@@H](CC(C)C)C(=O)N[C@@H](CC(C)C)C(=O)N[C@@H](C)C(=O)N[C@H](C(=O)NCC(=O)N1CCC[C@H]1C(=O)N[C@@H](CO)C(=O)N[C@@H](CO)C(=O)NCC(=O)N[C@@H](C)C(=O)N1CCC[C@H]1C(=O)N1CCC[C@H]1C(=O)N1CCC[C@H]1C(=O)N[C@@H](CO)C(N)=O)[C@@H](C)O)C(C)C)[C@@H](C)CC
B4: Example 78 (peptide)
peptide: Y[Aib]EGTFISDYSI[αMeL]LDKK([AEEA-AEEA-γGlu-C20 diacid])HQ[Aib]DFVE[4Pal]LLAAGPSSGAPPPS-NH2
modifications: N-terminus assumed
SMILES: CC[C@H](C)[C@H](NC(=O)[C@H](Cc1ccccc1)NC(=O)[C@@H](NC(=O)CNC(=O)[C@H](CCC(=O)O)NC(=O)C(C)(C)NC(=O)[C@@H](N)Cc1ccc(O)cc1)[C@@H](C)O)C(=O)N[C@@H](CO)C(=O)N[C@@H](CC(=O)O)C(=O)N[C@@H](Cc1ccc(O)cc1)C(=O)N[C@@H](CO)C(=O)N[C@H](C(=O)N[C@@](C)(CC(C)C)C(=O)N[C@@H](CC(C)C)C(=O)N[C@@H](CC(=O)O)C(=O)N[C@@H](CCCCN)C(=O)N[C@@H](CCCCNC(=O)COCCOCCNC(=O)COCCOCCNC(=O)CC[C@H](NC(=O)CCCCCCCCCCCCCCCCCCC(=O)O)C(=O)O)C(=O)N[C@@H](Cc1c[nH]cn1)C(=O)N[C@@H](CCC(N)=O)C(=O)NC(C)(C)C(=O)N[C@@H](CC(=O)O)C(=O)N[C@@H](Cc1ccccc1)C(=O)N[C@H](C(=O)N[C@@H](CCC(=O)O)C(=O)N[C@@H](Cc1ccncc1)C(=O)N[C@@H](CC(C)C)C(=O)N[C@@H](CC(C)C)C(=O)N[C@@H](C)C(=O)N[C@@H](C)C(=O)NCC(=O)N1CCC[C@H]1C(=O)N[C@@H](CO)C(=O)N[C@@H](CO)C(=O)NCC(=O)N[C@@H](C)C(=O)N1CCC[C@H]1C(=O)N1CCC[C@H]1C(=O)N1CCC[C@H]1C(=O)N[C@@H](CO)C(N)=O)C(C)C)[C@@H](C)CC
B5: Example 79 (peptide)
peptide: Y[Aib]EGTFISDYSI[αMeL]LDKK([AEEA-AEEA-γGlu-C20 diacid])HQ[Aib]DFVE[4Pal]LLAQGPSSGAPPPS-NH2
modifications: N-terminus assumed
SMILES: CC[C@H](C)[C@H](NC(=O)[C@H](Cc1ccccc1)NC(=O)[C@@H](NC(=O)CNC(=O)[C@H](CCC(=O)O)NC(=O)C(C)(C)NC(=O)[C@@H](N)Cc1ccc(O)cc1)[C@@H](C)O)C(=O)N[C@@H](CO)C(=O)N[C@@H](CC(=O)O)C(=O)N[C@@H](Cc1ccc(O)cc1)C(=O)N[C@@H](CO)C(=O)N[C@H](C(=O)N[C@@](C)(CC(C)C)C(=O)N[C@@H](CC(C)C)C(=O)N[C@@H](CC(=O)O)C(=O)N[C@@H](CCCCN)C(=O)N[C@@H](CCCCNC(=O)COCCOCCNC(=O)COCCOCCNC(=O)CC[C@H](NC(=O)CCCCCCCCCCCCCCCCCCC(=O)O)C(=O)O)C(=O)N[C@@H](Cc1c[nH]cn1)C(=O)N[C@@H](CCC(N)=O)C(=O)NC(C)(C)C(=O)N[C@@H](CC(=O)O)C(=O)N[C@@H](Cc1ccccc1)C(=O)N[C@H](C(=O)N[C@@H](CCC(=O)O)C(=O)N[C@@H](Cc1ccncc1)C(=O)N[C@@H](CC(C)C)C(=O)N[C@@H](CC(C)C)C(=O)N[C@@H](C)C(=O)N[C@@H](CCC(N)=O)C(=O)NCC(=O)N1CCC[C@H]1C(=O)N[C@@H](CO)C(=O)N[C@@H](CO)C(=O)NCC(=O)N[C@@H](C)C(=O)N1CCC[C@H]1C(=O)N1CCC[C@H]1C(=O)N1CCC[C@H]1C(=O)N[C@@H](CO)C(N)=O)C(C)C)[C@@H](C)CC

How the values were obtained:
human glucagon receptor = target: T2, human glucagon receptor (human, UniProt P47871 26-477); assay: SPA, displacement of [125I]-Gcg from hGcgR membranes, 0.1% bacitracin
T2 construct: whole, on cells; Assayed as crude membranes of stably transfected HEK293 cells; also called hGcgR; GcgR
T2 sequence (P47871 26-477): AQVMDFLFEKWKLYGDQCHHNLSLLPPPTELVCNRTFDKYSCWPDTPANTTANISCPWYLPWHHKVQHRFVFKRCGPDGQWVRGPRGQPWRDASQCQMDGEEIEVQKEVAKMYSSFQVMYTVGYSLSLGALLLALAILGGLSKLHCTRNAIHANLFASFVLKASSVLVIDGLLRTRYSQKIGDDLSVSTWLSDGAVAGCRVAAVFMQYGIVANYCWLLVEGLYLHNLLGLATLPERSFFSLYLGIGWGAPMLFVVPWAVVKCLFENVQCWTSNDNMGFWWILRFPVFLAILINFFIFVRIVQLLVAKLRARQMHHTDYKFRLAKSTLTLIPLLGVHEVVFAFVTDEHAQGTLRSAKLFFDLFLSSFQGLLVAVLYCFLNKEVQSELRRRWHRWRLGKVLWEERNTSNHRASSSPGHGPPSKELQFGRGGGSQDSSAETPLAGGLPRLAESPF
Summary of the method: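 Binding buffer: 25 mM HEPES pH 7.4, 2.5 mM CaCl₂, 1 mM MgCl₂, 0.003% Tween-20, protease inhibitors without EDTA. Counted by scintillation after 12 h incubation/settling at room temperature. Four-parameter nonlinear fit; Kᵢ given as geometric mean ± SEM of independent replicates run on different days.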

[1] = target: T1, human glucose-dependent insulinotropic …; assay: SPA, displacement of [125I]-GIP from hGIPR membranes, 0.1% bacitracin
human GLP-1 receptor = target: T3, human GLP-1 receptor (human, UniProt P43220 24-463); assay: SPA, displacement of [125I]-GLP-1 from hGLP-1R membranes, 0.1% bacitracin
T3 construct: whole, on cells; Assayed as crude membranes of stably transfected HEK293 cells; also called hGLP1R; hGLP-1R
Summary of the method: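 Binding buffer: 25 mM HEPES pH 7.4, 2.5 mM CaCl₂, 1 mM MgCl₂, 0.1% bacitracin, 0.003% Tween-20, protease inhibitors without EDTA. Four-parameter nonlinear regression; Kᵢ given as geometric mean ± SEM, n = independent replicates run on different days.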

Binder | Ki (human glucagon receptor) [nM] | Ki [1] [nM] | Ki (human GLP-1 receptor) [nM]
B1 | 230 | 0.0148 | 109
B2 | 800 | 0.0529 | 220
B3 | 857 | 0.0421 | 570
B4 | 505 | 0.0236 | 394
B5 | 888 | 0.0229 | 486
